Results taken from patent US20140348819A1, “Methods of Treating Cancer” (Dana-Farber Cancer Institute, Inc., priority 2011, published 2014).

Tested on: six V600E BRAF melanoma cell lines
Experiment: Screening of recombinant RTK ligands for ability to confer resistance to BRAFi (PLX4720) or MEKi (PD184352) (Table 4)
Assay type: cell-based, human
Set-up: ability of recombinant RTK ligand to confer resistance / ability of recombinant RTK ligand to confer resistance (screening value): scale not given here
How it was run: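 Resistance to BRAFi (PLX4720) or MEKi (PD184352) was tested in six V600E BRAF melanoma lines given one of 22 recombinant RTK ligands. For a subset of RTKs, activation was checked by high-throughput tyrosine kinase phosphorylation profiling and western blot.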

B1: Ephrin-A4 (protein, UniProt P52798 26-170, looked up)
Ephrin-A4: LRHVVYWNSSNPRLLRGDAVVELGLNDYLDIVCPHYEGPGPPEGPETFALYMVDWPGYESCQAEGPRAYKRWVCSLPFGHVQFSEKIQRFTPFSLGFEFLPGETYYYISVPTPESSGQCLRLQVSVCCKERKSESAHPVGSPGES
ability of recombinant RTK ligand to confer resistance (A2058, PD184352 - 1 uM, ligand 1.6 ng/ml): 1.00 | ability of recombinant RTK ligand to confer resistance (A2058, PD184352 - 1 uM, ligand 6.25 ng/ml): 1.02 | ability of recombinant RTK ligand to confer resistance (A2058, PD184352 - 1 uM, ligand 25 ng/ml): 0.99 | ability of recombinant RTK ligand to confer resistance (A2058, PD184352 - 1 uM, ligand 100 ng/ml): 1.04 | ability of recombinant RTK ligand to confer resistance (A2058, PD184352 - 1 uM, ligand 400 ng/ml): 1.07 | ability of recombinant RTK ligand to confer resistance (A2058, PLX4720 - 2 uM, ligand 1.6 ng/ml): 0.97 | ability of recombinant RTK ligand to confer resistance (A2058, PLX4720 - 2 uM, ligand 6.25 ng/ml): 0.99 | ability of recombinant RTK ligand to confer resistance (A2058, PLX4720 - 2 uM, ligand 25 ng/ml): 0.96 | ability of recombinant RTK ligand to confer resistance (A2058, PLX4720 - 2 uM, ligand 100 ng/ml): 0.99 | ability of recombinant RTK ligand to confer resistance (A2058, PLX4720 - 2 uM, ligand 400 ng/ml): 0.98 | ability of recombinant RTK ligand to confer resistance (C32, PD184352 - 1 uM, ligand 1.6 ng/ml): 1.02 | ability of recombinant RTK ligand to confer resistance (C32, PD184352 - 1 uM, ligand 6.25 ng/ml): 1.02 | ability of recombinant RTK ligand to confer resistance (C32, PD184352 - 1 uM, ligand 25 ng/ml): 0.98 | ability of recombinant RTK ligand to confer resistance (C32, PD184352 - 1 uM, ligand 100 ng/ml): 1.04 | ability of recombinant RTK ligand to confer resistance (C32, PD184352 - 1 uM, ligand 400 ng/ml): 0.90 | ability of recombinant RTK ligand to confer resistance (C32, PLX4720 - 2 uM, ligand 1.6 ng/ml): 1.04 | ability of recombinant RTK ligand to confer resistance (C32, PLX4720 - 2 uM, ligand 6.25 ng/ml): 1.01 | ability of recombinant RTK ligand to confer resistance (C32, PLX4720 - 2 uM, ligand 25 ng/ml): 1.04 | ability of recombinant RTK ligand to confer resistance (C32, PLX4720 - 2 uM, ligand 100 ng/ml): 1.10 | ability of recombinant RTK ligand to confer resistance (C32, PLX4720 - 2 uM, ligand 400 ng/ml): 1.03 | ability of recombinant RTK ligand to confer resistance (Colo 829, PD184352 - 1 uM, ligand 1.6 ng/ml): 1.08 | ability of recombinant RTK ligand to confer resistance (Colo 829, PD184352 - 1 uM, ligand 6.25 ng/ml): 1.13 | ability of recombinant RTK ligand to confer resistance (Colo 829, PD184352 - 1 uM, ligand 25 ng/ml): 1.01 | ability of recombinant RTK ligand to confer resistance (Colo 829, PD184352 - 1 uM, ligand 100 ng/ml): 0.98 | ability of recombinant RTK ligand to confer resistance (Colo 829, PD184352 - 1 uM, ligand 400 ng/ml): 0.96 | ability of recombinant RTK ligand to confer resistance (Colo 829, PLX4720 - 2 uM, ligand 1.6 ng/ml): 1.06 | ability of recombinant RTK ligand to confer resistance (Colo 829, PLX4720 - 2 uM, ligand 6.25 ng/ml): 1.19 | ability of recombinant RTK ligand to confer resistance (Colo 829, PLX4720 - 2 uM, ligand 25 ng/ml): 1.00 | ability of recombinant RTK ligand to confer resistance (Colo 829, PLX4720 - 2 uM, ligand 100 ng/ml): 0.99 | ability of recombinant RTK ligand to confer resistance (Colo 829, PLX4720 - 2 uM, ligand 400 ng/ml): 0.90 | ability of recombinant RTK ligand to confer resistance (G-361, PD184352 - 1 uM, ligand 1.6 ng/ml): 1.11 | ability of recombinant RTK ligand to confer resistance (G-361, PD184352 - 1 uM, ligand 6.25 ng/ml): 1.09 | ability of recombinant RTK ligand to confer resistance (G-361, PD184352 - 1 uM, ligand 25 ng/ml): 1.04 | ability of recombinant RTK ligand to confer resistance (G-361, PD184352 - 1 uM, ligand 100 ng/ml): 0.98 | ability of recombinant RTK ligand to confer resistance (G-361, PD184352 - 1 uM, ligand 400 ng/ml): 0.86 | ability of recombinant RTK ligand to confer resistance (G-361, PLX4720 - 2 uM, ligand 1.6 ng/ml): 1.08 | ability of recombinant RTK ligand to confer resistance (G-361, PLX4720 - 2 uM, ligand 6.25 ng/ml): 1.05 | ability of recombinant RTK ligand to confer resistance (G-361, PLX4720 - 2 uM, ligand 25 ng/ml): 0.95 | ability of recombinant RTK ligand to confer resistance (G-361, PLX4720 - 2 uM, ligand 100 ng/ml): 1.02 | ability of recombinant RTK ligand to confer resistance (G-361, PLX4720 - 2 uM, ligand 400 ng/ml): 0.88 | ability of recombinant RTK ligand to confer resistance (SK-MEL-5, PD184352 - 1 uM, ligand 1.6 ng/ml): 0.96 | ability of recombinant RTK ligand to confer resistance (SK-MEL-5, PD184352 - 1 uM, ligand 6.25 ng/ml): 0.93 | ability of recombinant RTK ligand to confer resistance (SK-MEL-5, PD184352 - 1 uM, ligand 25 ng/ml): 0.93 | ability of recombinant RTK ligand to confer resistance (SK-MEL-5, PD184352 - 1 uM, ligand 100 ng/ml): 0.98 | ability of recombinant RTK ligand to confer resistance (SK-MEL-5, PD184352 - 1 uM, ligand 400 ng/ml): 0.99 | ability of recombinant RTK ligand to confer resistance (SK-MEL-5, PLX4720 - 2 uM, ligand 1.6 ng/ml): 0.91 | ability of recombinant RTK ligand to confer resistance (SK-MEL-5, PLX4720 - 2 uM, ligand 6.25 ng/ml): 1.07 | ability of recombinant RTK ligand to confer resistance (SK-MEL-5, PLX4720 - 2 uM, ligand 25 ng/ml): 0.99 | ability of recombinant RTK ligand to confer resistance (SK-MEL-5, PLX4720 - 2 uM, ligand 100 ng/ml): 0.99 | ability of recombinant RTK ligand to confer resistance (SK-MEL-5, PLX4720 - 2 uM, ligand 400 ng/ml): 0.93 | ability of recombinant RTK ligand to confer resistance (SK-MEL-28, PD184352 - 1 uM, ligand 1.6 ng/ml): 0.98 | ability of recombinant RTK ligand to confer resistance (SK-MEL-28, PD184352 - 1 uM, ligand 6.25 ng/ml): 0.88 | ability of recombinant RTK ligand to confer resistance (SK-MEL-28, PD184352 - 1 uM, ligand 25 ng/ml): 0.99 | ability of recombinant RTK ligand to confer resistance (SK-MEL-28, PD184352 - 1 uM, ligand 100 ng/ml): 1.07 | ability of recombinant RTK ligand to confer resistance (SK-MEL-28, PD184352 - 1 uM, ligand 400 ng/ml): 0.90 | ability of recombinant RTK ligand to confer resistance (SK-MEL-28, PLX4720 - 2 uM, ligand 1.6 ng/ml): 1.10 | ability of recombinant RTK ligand to confer resistance (SK-MEL-28, PLX4720 - 2 uM, ligand 6.25 ng/ml): 0.84 | ability of recombinant RTK ligand to confer resistance (SK-MEL-28, PLX4720 - 2 uM, ligand 25 ng/ml): 1.05 | ability of recombinant RTK ligand to confer resistance (SK-MEL-28, PLX4720 - 2 uM, ligand 100 ng/ml): 1.10 | ability of recombinant RTK ligand to confer resistance (SK-MEL-28, PLX4720 - 2 uM, ligand 400 ng/ml): 1.00
